The results in this text go back to patent US20210024646A1 (published 2021).

Where “and” joins values, the source holds several entries; their conditions need not be identical. Equal values may be shown once. Read-outs that look alike come from different tables or passages of the source.

Test [1] concerns the target T1, extracellular domain of human CD73 protein (CD73-ECD), C-terminus polyhistidine-tagged (UniProt P21589 27-547).
T1 chain: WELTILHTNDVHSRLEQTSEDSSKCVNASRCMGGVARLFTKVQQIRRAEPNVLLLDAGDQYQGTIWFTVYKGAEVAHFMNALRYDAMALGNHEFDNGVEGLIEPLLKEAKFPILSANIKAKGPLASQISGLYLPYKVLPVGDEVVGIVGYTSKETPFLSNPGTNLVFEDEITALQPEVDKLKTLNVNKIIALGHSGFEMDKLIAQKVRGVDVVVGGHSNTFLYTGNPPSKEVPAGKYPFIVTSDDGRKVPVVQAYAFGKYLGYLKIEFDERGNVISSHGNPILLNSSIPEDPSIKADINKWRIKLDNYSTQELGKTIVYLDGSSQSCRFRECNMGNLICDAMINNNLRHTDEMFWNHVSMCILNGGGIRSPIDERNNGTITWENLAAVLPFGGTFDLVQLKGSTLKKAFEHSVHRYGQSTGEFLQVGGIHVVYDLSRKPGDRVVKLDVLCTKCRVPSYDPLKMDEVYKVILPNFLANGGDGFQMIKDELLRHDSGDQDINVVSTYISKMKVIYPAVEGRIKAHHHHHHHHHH
Briefly: ELISA.

Test [2] deals with T2, CD73 on the surface of human tumor cells (human, UniProt P21589 27-549).
T2 chain: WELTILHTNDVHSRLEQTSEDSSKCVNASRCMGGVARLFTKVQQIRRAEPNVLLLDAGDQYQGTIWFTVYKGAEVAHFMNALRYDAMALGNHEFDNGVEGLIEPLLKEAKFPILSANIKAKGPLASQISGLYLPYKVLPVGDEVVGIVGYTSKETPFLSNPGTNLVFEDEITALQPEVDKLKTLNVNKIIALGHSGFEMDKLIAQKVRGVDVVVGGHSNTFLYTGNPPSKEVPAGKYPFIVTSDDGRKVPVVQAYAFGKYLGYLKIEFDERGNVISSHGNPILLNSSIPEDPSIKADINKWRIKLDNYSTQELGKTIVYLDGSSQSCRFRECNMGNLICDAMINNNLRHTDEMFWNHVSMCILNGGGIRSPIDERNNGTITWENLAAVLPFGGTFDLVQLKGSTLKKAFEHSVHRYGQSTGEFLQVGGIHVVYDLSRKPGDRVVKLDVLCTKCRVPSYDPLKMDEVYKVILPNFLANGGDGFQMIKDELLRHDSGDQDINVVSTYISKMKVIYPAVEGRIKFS
Briefly: FACS; NCI-H1299 cells, left table. Background: Flow cytometry measures light scatter and fluorescence of single cells or particles in a stream.

The target in test [3] is T2, CD73 on the surface of human tumor cells. The test is described as follows: FACS; NCI-H1299 cells, right table.
Test [4] has as its target T1, extracellular domain of human CD73 …. Briefly: ELISA.
For test [5] the target is unchanged. The test is described as follows: enzyme inhibition; right table.
For test [6], the target named is T2, CD73 on the surface of human tumor cells. The test is described as follows: FACS; MDA-MB-231 cells, right table.
The target in test [7] is T3, Carbon-terminal polyhistidine-labeled recombinant cynomolgus monkey CD73 enzyme (cynomolgus monkey, UniProt A0A2K5V5U7 1-547).
T3 chain: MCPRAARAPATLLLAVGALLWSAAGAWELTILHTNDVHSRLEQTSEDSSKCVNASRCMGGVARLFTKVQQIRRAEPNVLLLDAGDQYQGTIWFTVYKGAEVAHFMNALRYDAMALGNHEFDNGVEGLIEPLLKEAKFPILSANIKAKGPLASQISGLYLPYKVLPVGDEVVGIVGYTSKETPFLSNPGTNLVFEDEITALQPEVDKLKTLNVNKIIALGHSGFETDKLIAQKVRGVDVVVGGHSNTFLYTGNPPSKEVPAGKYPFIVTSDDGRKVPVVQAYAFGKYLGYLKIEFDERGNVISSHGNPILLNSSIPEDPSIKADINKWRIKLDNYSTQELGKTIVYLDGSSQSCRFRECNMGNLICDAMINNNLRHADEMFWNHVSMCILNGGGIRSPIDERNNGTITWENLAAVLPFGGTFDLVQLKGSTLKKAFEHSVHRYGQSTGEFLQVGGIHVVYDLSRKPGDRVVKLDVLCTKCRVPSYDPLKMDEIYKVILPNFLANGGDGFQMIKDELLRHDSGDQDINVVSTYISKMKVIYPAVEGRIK
The test is described as follows: enzyme inhibition; right table.

The target in test [8] is T1, extracellular domain of human CD73 …. The test is described as follows: enzyme inhibition; left table.
The target of test [9] is T3, Carbon-terminal polyhistidine-labeled …. The test is described as follows: enzyme inhibition; left table.
For test [10], the target named is T2, CD73 on the surface of human tumor cells. Briefly: FACS; MDA-MB-231 cells, left table.

B1: mAb001c-VK-SGS (antibody, V domains shown)
VH: QVQLQQSGPELVKPGASVRISCKTSGYTFTNYYIYWVKQRPGQGLEWIGWIYPGNLNIKYNEKFKGKSTLTADKSSSTAFMQLSSLTSEDSAVYFCARDDNYAWFAYWGQGTLVTVSS
VL: DIVMTQSHKFMSTSIGDRVSITCKASQDVSTAVAWYQQKPGQSPKLLIYWTNTRHTGVPDRFTGSGSGTEHTLTISSVQAEDLALYYCQQHYSTPFTFGSGTTLEIK
As a reminder, the EC50 is the concentration needed to bring the measured effect to its halfway point. For B1, the EC50 is 0.099 nM and 0.054 nM in test [1]; 1.62 nM in [2]; 1.65 nM in test [3]; 0.073 nM in test [4].

B2: Hu001c-14 (antibody, V domains shown)
VH: QVQLVQSGAEVKKPGASVKVSCKTSGYTFTNYYIYWVRQAPGQRLEWMGWIYPGNLNIKYNEKFKGRVTITADTSASTAYMELSSLRSEDTAVYYCARDDNYAWFAYWGQGTLVTVSS
VL: DIQMTQSPSSLSASVGDRVTITCKASQDVSTAVAWYQQKPGKAPKLLIYWTNTRHTGVPSRFSGSGSGTDHTLTISSLQPEDFATYYCQQHYSTPFTFGQGTKLEIK
In general, IC50 refers to the concentration that gives 50% inhibition. B2: the EC50 was determined as 0.108 nM in [1]; 1.33 nM in test [2]; 0.626 nM in [6]; 1.16 nM in [3]; 0.449 nM in test [10]. Also, the concentration for half-maximal inhibition (IC50) in test [5] was 0.06 nM; in [7], 0.1 nM; in test [8], 0.06 nM; in test [9], 0.11 nM.

B3: Hu001c-23 (antibody, V domains shown)
VH: QVQLVQSGAEVKKPGASVKVSCKASGYTFTNYYIYWVKQRPGQGLEWIGWIYPGNLNIKYNEKFKGRVTITADKSASTAYMELSSLRSEDTAVYYCARDDNYAWFAYWGQGTLVTVSS
VL: DIQMTQSPSSLSASVGDRVTITCKASQDVSTAVAWYQQKPGKAPKLLIYWTNTRHTGVPSRFSGSGSGTDHTLTISSLQPEDFATYYCQQHYSTPFTFGQGTKLEIK
In the case of B3, the 50% effective concentration (EC50) in test [1] came out at 0.033 nM; in [2], 1.3 nM; in test [6], 0.593 nM; in [3], 1.48 nM; in test [10], 0.4 nM. The IC50 came out at 0.04 nM in [5], 0.07 nM in [7], 0.03 nM in [8] and 0.07 nM in [9].

B4: Hu001c-30 (antibody, V domains shown)
VH: QVQLVQSGAEVKKPGASVKVSCKASGYTFTNYYIYWVKQRPGQRLEWIGWIYPGNLNIKYNEKFKGRSTLTADKSASTAYMELSSLRSEDTAVYYCARDDNYAWFAYWGQGTLVTVSS
VL: DIQMTQSPSSLSASVGDRVTITCKASQDVSTAVAWYQQKPGKAPKLLIYWTNTRHTGVPSRFSGSGSGTDFTLTISSLQPEDFATYYCQQHYSTPFTFGQGTKLEIK
In the case of B4, the half-maximal effective concentration (EC50) is 0.139 nM in test [1], 0.695 nM in [6] and 1.61 nM in test [3]. Further, the IC50 in [5] was 0.128 nM; in test [7] it was 0.132 nM.

B5: Hu001c-32 (antibody, V domains shown)
VH: QVQLVQSGAEVKKPGASVKVSCKASGYTFTNYYIYWVKQRPGQRLEWIGWIYPGNLNIKYNEKFKGRSTLTADKSASTAYMELSSLRSEDTAVYYCARDDNYAWFAYWGQGTLVTVSS
VL: DIQMTQSPSSLSASVGDRVTITCKASQDVSTAVAWYQQKPGKAPKLLIYWTNTRHTGVPSRFSGSGSGTDHTLTISSLQPEDFATYYCQQHYSTPFTFGQGTKLEIK
With B5, the concentration for a half-maximal effect (EC50) in [1] came out at 0.107 nM; in test [6], 0.608 nM; in test [3], 1.62 nM. Besides, the half-inhibitory concentration (IC50) came to 0.07 nM in test [5] and 0.11 nM in test [7].

B6: mAb002c-VH-NA (antibody, V domains shown)
VH: QVQLQQPGAELVKPGASVRLSCKASGYTLTSYWMHWVKKRPGQGLEWIGEINPSNARSNYNEKFKSKATLTVDRSSSTVYMQLGSLTSEDSAVYYCARRGVSGNYFDYWGQGTTLTVSS
VL: DIKMTQSPSSMYASLGERVTMTCKASQDINTYLSWFQQKPGKSPKTLIYRSNILVDGVPSRFSGSRSGQDYYLTITSLEYEDMGIYYCLQYDEFPYTFGGGTKLELK
In the case of B6, the half-maximal effective concentration (EC50) in test [4] came out at 0.051 nM.

B7: mAb002c-VH-QG (antibody, V domains shown)
VH: QVQLQQPGAELVKPGASVRLSCKASGYTLTSYWMHWVKKRPGQGLEWIGEINPSQGRSNYNEKFKSKATLTVDRSSSTVYMQLGSLTSEDSAVYYCARRGVSGNYFDYWGQGTTLTVSS
VL: DIKMTQSPSSMYASLGERVTMTCKASQDINTYLSWFQQKPGKSPKTLIYRSNILVDGVPSRFSGSRSGQDYYLTITSLEYEDMGIYYCLQYDEFPYTFGGGTKLELK
With B7, the EC50 in test [4] is 0.05 nM.

B8: mAb002c-VK-SG (antibody, V domains shown)
VH: QVQLQQPGAELVKPGASVRLSCKASGYTLTSYWMHWVKKRPGQGLEWIGEINPSNGRSNYNEKFKSKATLTVDRSSSTVYMQLGSLTSEDSAVYYCARRGVSGNYFDYWGQGTTLTVSS
VL: DIKMTQSPSSMYASLGERVTMTCKASQDINTYLSWFQQKPGKSPKTLIYRSNILVSGVPSRFSGSRSGQDYYLTITSLEYEDMGIYYCLQYDEFPYTFGGGTKLELK
In the case of B8, a half-maximal effect in test [4] (EC50) was put at 0.063 nM.
